The results in this text go back to the supplement of paper PMC3353916.

± gives the standard deviation of the averaged measurements.

The subject of the series is Sindbis virus TE/5'2J-GFP. The series is described as follows: percent infected (GFP+ in RFP+ ISG-expressing cells); higher = more infection (less antiviral activity). As for the experimental part: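 Confirmatory testing of 87 ISGs. Triplicate wells of BHK/HA-Zeo (control) or BHK/NZAP-Zeo (ZAP) cells were transduced with lentiviruses co-expressing a human ISG plus TagRFP, then infected 48 h later with SINV TE/5'2J-GFP (moi 5). The % GFP+ cells among RFP+ cells was measured by flow cytometry at 8 h post infection. Fluc lentivirus served as control. Three independent experiments.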

The mark [1] stands for this setting: experiment: confirmatory screen 1, BHK/HA-Zeo (control).
[2] abbreviates: experiment: confirmatory screen 1, BHK/NZAP-Zeo (ZAP).
Setting [3] is: experiment: confirmatory screen 2, BHK/HA-Zeo (control).
[4] abbreviates: experiment: confirmatory screen 2, BHK/NZAP-Zeo (ZAP).
The mark [5] stands for this setting: experiment: confirmatory screen 3, BHK/HA-Zeo (control).
Where [6] appears, read: experiment: confirmatory screen 3, BHK/NZAP-Zeo (ZAP).
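Note: Interferon-defective BHK-21 derivatives, ZAP line overexpressing the rat ZAP N-terminal zinc finger domain fused to Zeocin resistance, GFP scored within live singlet TagRFP+ cells.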

For “MAPEINLPGPMSLIDNTKGQLVVNPEALKILSAITQPVVVVAIVGLYRTGKSYLMNKLAGKKNGFSLGSTVKSHTKGIWMWCVPHPKKPEHTLVLLDTEGLGDIEKGDNENDSWIFALAILLSSTFVYNSMGTINQQAMDQLHYVTELTDRIKANSSPGNNSVDDSADFVSFFPAFVWTLRDFTLELEVDGEPITADDYLELSLKLRKGTDKKSKSFNDPRLCIRKFFPKRKCFVFDWPAPKKYLAHLEQLKEEELNPDFIEQVAEFCSYILSHSNVKTLSGGIPVNGPRLESLVLTYVNAISSGDLPCMENAVLALAQIENSAAVEKAIAHYEQQMGQKVQLPTETLQELLDLHRDSEREAIEVFMKNSFKDVDQMFQRKLGAQLEARRDDFCKQNSKASSDCCMALLQDIFGPLEEDVKQGTFSKPGGYRLFTQKLQELKNKYYQVPRKGIQAKEVLKKYLESKEDVADALLQTDQSLSEKEKAIEVERIKAESAEAAKKMLEEIQKKNEEMMEQKEKSYQEHVKQLTEKMERDRAQLMAEQEKTLALKLQEQERLLKEGFENESKRLQKDIWDIQMRSKSLEPICNIL [GBP2]”, the percent infected was found to be 96.3 ± 0.94% under setting [1]; 80.8 ± 0.62% under setting [2]; 94.84 ± 0.44% under setting [3]; 95.94 ± 0.23% under setting [4]; 93.28 ± 0.57% under setting [5]; 94.23 ± 0.41% under setting [6].

As to “MIAAQAKLVYQLNKYYTERCQARKAAIAKTIREVCKVVSDVLKEVEVQEPRFISSLSEIDARYEGLEVISPTEFEVVLYLNQMGVFNFVDDGSLPGCAVLKLSDGRKRSMSLWVEFITASGYLSARKIRSRFQTLVAQAVDKCSYRDVVKMIADTSEVKLRIRERYVVQITPAFKCTGIWPRSAAQWPMPHIPWPGPNRVAEVKAEGFNLLSKECYSLTGKQSSAESDAWVLQFGEAENRLLMGGCRNKCLSVLKTLRDRHLELPGQPLNNYHMKTLLLYECEKHPRETDWDESCLGDRLNGILLQLISCLQCRRCPHYFLPNLDLFQGKPHSALESAAKQTWRLAREILTNPKSLDKL [MAB21L2]”, the percent infected was determined as 77.4 ± 7.3% under setting [1]; 48.7 ± 1.9% under setting [2]; 93.37 ± 0.82% under setting [3]; 93.8 ± 0.28% under setting [4]; 85.5 ± 3.3% under setting [5]; 86.9 ± 0.91% under setting [6].

With “MHQSLTQQRSSDMSLPDSMGAFNRRKRNSIYVTVTLLIVSVLILTVGLAATTRTQNVTVGGYYPGVILGFGSFLGIIGSNLIENKRQMLVASIVFISFGVIAAFCCAIVDGVFAARHIDLKPLYANRCHYVPKTSQKEAEEVISSSTKNSPSTRVMRNLTQAAREVNCPHLSREFCTPRIRGNTCFCCDLYNCGNRVEITGGYYEYIDVSSCQDIIHLYHLLWSATILNIVGLFLGIITAAVLGGFKDMNPTLPALNCSVENTHPTVSYYAHPQVASYNTYYHSPPHLPPYSAYDFQHSGVFPSSPPSGLSDEPQSASPSPSYMWSSSAPPRYSPPYYPPFEKPPPYSP [FAM70A]”, the percent infected came to 97.01 ± 0.45% under setting [1]; 75.9 ± 2.9% under setting [2]; 96.07 ± 0.48% under setting [3]; 95.55 ± 0.12% under setting [4]; 94.9 ± 0.5% under setting [5]; 94.05 ± 0.37% under setting [6].

Take “MAQASPPRPERVLGASSPEARPAQEALLLPTGVFQVAEKMEKRTCALCPKDVEYNVLYFAQSENIAAHENCLLYSSGLVECEDQDPLNPDRSFDVESVKKEIQRGRKLKCKFCHKRGATVGCDLKNCNKNYHFFCAKKDDAVPQSDGVRGIYKLLCQQHAQFPIIAQSAKFSGVKRKRGRKKPLSGNHVQPPETMKCNTFIRQVKEEHGRHTDATVKVPFLKKCKEAGLLNYLLEEILDKVHSIPEKLMDETTSESDYEEIGSALFDCRLFEDTFVNFQAAIEKKIHASQQRWQQLKEEIELLQDLKQTLCSFQENRDLMSSSTSISSLSY [PHF11]”: the percent infected came out at 76.3 ± 5.1% under setting [1]; 50.3 ± 2.9% under setting [2]; 91.99 ± 0.75% under setting [3]; 93.69 ± 0.2% under setting [4]; 89.11 ± 0.58% under setting [5]; 89.89 ± 0.28% under setting [6].

“MALLDVCGAPRGQRPESALPVAGSGRRSDPGHYSFSMRSPELALPRGMQPTEFFQSLGGDGERNVQIEMAHGTTTLAFKFQHGVIAAVDSRASAGSYISALRVNKVIEINPYLLGTMSGCAADCQYWERLLAKECRLYYLRNGERISVSAASKLLSNMMCQYRGMGLSMGSMICGWDKKGPGLYYVDEHGTRLSGNMFSTGSGNTYAYGVMDSGYRPNLSPEEAYDLGRRAIAYATHRDSYSGGVVNMYHMKEDGWVKVESTDVSDLLHQYREANQ [PSMB8]”: the percent infected was found to be 94.7 ± 1.4% under setting [1]; 64.8 ± 5.2% under setting [2]; 95.27 ± 0.2% under setting [3]; 94.97 ± 0.39% under setting [4]; 94.16 ± 0.23% under setting [5]; 94.18 ± 0.46% under setting [6].

Take “MASVIPASNRSMRSDRNTYVGKRFVHVKNPYLDLMDEDILYHLDLGTKTHNLPAMFGDVKFVCVGGSPNRMKAFALFMHKELGFEEAEEDIKDICAGTDRYCMYKTGPVLAISHGMGIPSISIMLHELIKLLHHARCCDVTIIRIGTSGGIGIAPGTVVITDIAVDSFFKPRFEQVILDNIVTRSTELDKELSEELFNCSKEIPNFPTLVGHTMCTYDFYEGQGRLDGALCSFSREKKLDYLKRAFKAGVRNIEMESTVFAAMCGLCGLKAAVVCVTLLDRLDCDQINLPHDVLVEYQQRPQLLISNFIRRRLGLCD [UPP2]”: the percent infected under setting [1] is 74.9 ± 4.2%; the percent infected under setting [2] is 43.1 ± 2.3%; the percent infected under setting [3] came to 89.79 ± 0.72%; the percent infected under setting [4] came to 93.4 ± 1.3%; the percent infected under setting [5] turned out to be 83.4 ± 1.3%; the percent infected under setting [6] came out at 88.3 ± 1.5%.

Regarding “MMFRDQVGVLAGWFKGWNECEQTVALLSLLKRVSQTQARFLQLCLEHSLADCAELHVLEREANSPGIINQWQQESKDKVISLLLTHLPLLKPGNLDAKVEYMKLLPKILAHSIEHNQHIEESRQLLSYALIHPATSLEDRSALAMWLNHLEDRTSTSFGGQNRGRSDSVDYGQTHYYHQRQNSDDKLNGWQNSRDSGICINASNWQDKSMGCENGHVPLYSSSSVPTTINTIGTSTSTILSGQAHHSPLKRSVSLTPPMNVPNQPLGHGWMSHEDLRARGPQCLPSDHAPLSPQSSVASSGSGGSEHLEDQTTARNTFQEEGSGMKDVPAWLKSLRLHKYAALFSQMTYEEMMALTECQLEAQNVTKGARHKIVISIQKLKERQNLLKSLERDIIEGGSLRIPLQELHQMILTPIKAYSSPSTTPEARRREPQAPRQPSLMGPESQSPDCKDGAAATGATATPSAGASGGLQPHQLSSCDGELAVAPLPEGDLPGQFTRVMGKVCTQLLVSRPDEENISSYLQLIDKCLIHEAFTETQKKRLLSWKQQVQKLFRSFPRKTLLDISGYRQQRNRGFGQSNSLPTAGSVGGGMGRRNPRQYQIPSRNVPSARLGLLGTSGFVSSNQRNTTATPTIMKQGRQNLWFANPGGSNSMPSRTHSSVQRTRSLPVHTSPQNMLMFQQPEFQLPVTEPDINNRLESLCLSMTEHALGDGVDRTSTI [SAMD4A]”, the percent infected was 80.4 ± 0.93% under setting [1]; 12.5 ± 0.52% under setting [2]; 92.98 ± 0.71% under setting [3]; 93.39 ± 0.29% under setting [4]; 83.1 ± 1.3% under setting [5]; 84.55 ± 0.77% under setting [6].

“MPGKKARKNAQPSPARAPAELEVECATQLRRFGDKLNFRQKLLNLISKLFCSGT [PMAIP1]” came in with a percent infected under setting [1] of 94.9 ± 1.1%; a percent infected under setting [2] of 87.9 ± 2.1%; a percent infected under setting [3] of 95.11 ± 0.24%; a percent infected under setting [4] of 93.22 ± 0.27%; a percent infected under setting [5] of 92.03 ± 0.31%; a percent infected under setting [6] of 92.36 ± 0.16%.

For “MGILYSEPICQAAYQNDFGQVWRWVKEDSSYANVQDGFNGDTPLICACRRGHVRIVSFLLRRNANVNLKNQKERTCLHYAVKKKFTFIDYLLIILLMPVLLIGYFLMVSKTKQNEALVRMLLDAGVEVNATDCYGCTALHYACEMKNQSLIPLLLEARADPTIKNKHGESSLDIARRLKFSQIELMLRKAL [ANKRD22]”, the percent infected is, setting by setting: under setting [1], 96.94 ± 0.72%; under setting [2], 78.5 ± 1.2%; under setting [3], 96.41 ± 0.47%; under setting [4], 95.57 ± 0.16%; under setting [5], 93.15 ± 0.2%; under setting [6], 93.16 ± 0.36%.

As for “MTLNNVTMRQGTVGMQPQQQRWSIPADGRHLMVQKEPHQYSHRNRHSATPEDHCRRSWSSDSTDSVISSESGNTYYRVVLIGEQGVGKSTLANIFAGVHDSMDSDCEVLGEDTYERTLMVDGESATIILLDMWENKGENEWLHDHCMQVGDAYLIVYSITDRASFEKASELRIQLRRARQTEDIPIILVGNKSDLVRCREVSVSEGRACAVVFDCKFIETSAAVQHNVKELFEGIVRQVRLRRDSKEKNERRLAYQKRKESMPRKARRFWGKIVAKNNKNMAFKLKSKSCHDLSVL [GEM]”, the percent infected is, setting by setting: under setting [1], 91.5 ± 3.5%; under setting [2], 65 ± 4%; under setting [3], 94.19 ± 0.65%; under setting [4], 94.64 ± 0.36%; under setting [5], 94.39 ± 0.59%; under setting [6], 93.55 ± 0.12%.

On to “MEQHFLGCVKRAWDSAEVAPEPQPPPIVSSEDRGPWPLPLYPVLGEYSLDSCDLGLLSSPCWRLPGVYWQNGLSPGVQSTLEPSTAKPTEFSWPGTQKQQEAPVEEVGQAEEPDRLRLQQLPWSSPLHPWDRQQDTEVCDSGCLLERRHPPALQPWRHLPGFSDCLEWILRVGFAAFSVLWACCSRICGAKQP [C5orf39]”, for which the percent infected reads like this: under setting [1], 76.7 ± 4.1%; under setting [2], 9.13 ± 2.2%; under setting [3], 93.67 ± 0.59%; under setting [4], 89.88 ± 0.14%; under setting [5], 75.4 ± 1.5%; under setting [6], 50.1 ± 3%.

In the case of “MQEGELAISPISPVAAMPPLGTHVQARCEAQINLLGEGGICKLPGRLRIQPALWSREDVLHWLRWAEQEYSLPCTAEHGFEMNGRALCILTKDDFRHRAPSSGDVLYELLQYIKTQRRALVCGPFFGGIFRLKTPTQHSPVPPEEVTGPSQMDTRRGHLLQPPDPGLTSNFGHLDDPGLARWTPGKEESLNLCHCAELGCRTQGVCSFPAMPQAPIDGRIADCRLLWDYVYQLLLDTRYEPYIKWEDKDAKIFRVVDPNGLARLWGNHKNRVNMTYEKMSRALRHYYKLNIIKKEPGQKLLFRFLKTPGKMVQDKHSHLEPLESQEQDRIEFKDKRPEISP [ETV7]”, the percent infected runs as follows: under setting [1], 95.31 ± 0.45%; under setting [2], 67.2 ± 4%; under setting [3], 95.82 ± 0.54%; under setting [4], 95.28 ± 0.2%; under setting [5], 93 ± 1.6%; under setting [6], 93.56 ± 0.55%.

Take PDK1: the percent infected by setting is: under setting [1], 94.39 ± 0.65%; under setting [2], 65.7 ± 2.9%; under setting [3], 95.24 ± 0.62%; under setting [4], 95.39 ± 0.19%; under setting [5], 93.83 ± 0.42%; under setting [6], 93.94 ± 0.33%.
